Test results reported in patent US20200277392A1 (Hoffmann-La Roche, published 2020).

T1: mouse TnC with C-terminal Avi- and His-tags (mouse, biotinylated at the C-terminal Avi-tag)
T1 construct: the N-terminal fn5 and C-terminal fn6 parts look like the human ones; also called muTnC; murine TnC
T1 chain: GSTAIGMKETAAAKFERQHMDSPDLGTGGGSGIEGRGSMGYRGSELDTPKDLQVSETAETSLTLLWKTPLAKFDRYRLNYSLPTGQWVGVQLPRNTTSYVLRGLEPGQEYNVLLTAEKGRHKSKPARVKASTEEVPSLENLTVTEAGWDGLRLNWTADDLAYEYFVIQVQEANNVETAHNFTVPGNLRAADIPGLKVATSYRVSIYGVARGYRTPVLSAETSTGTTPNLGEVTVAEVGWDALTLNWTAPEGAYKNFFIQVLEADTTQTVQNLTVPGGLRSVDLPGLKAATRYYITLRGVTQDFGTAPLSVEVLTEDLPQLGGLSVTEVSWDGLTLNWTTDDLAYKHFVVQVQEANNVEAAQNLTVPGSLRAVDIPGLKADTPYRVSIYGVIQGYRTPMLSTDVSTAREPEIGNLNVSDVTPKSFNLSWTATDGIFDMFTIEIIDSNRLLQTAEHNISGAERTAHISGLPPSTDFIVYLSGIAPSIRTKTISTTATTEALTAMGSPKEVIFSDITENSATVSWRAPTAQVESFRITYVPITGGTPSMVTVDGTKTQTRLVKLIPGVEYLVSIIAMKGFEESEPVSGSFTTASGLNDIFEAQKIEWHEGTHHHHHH

T2: cynomolgus TnC with C-terminal Avi- and His-tags (cynomolgus, biotinylated at the C-terminal Avi-tag)
T2 construct: also called cynoTnC; cyno TnC
T2 chain: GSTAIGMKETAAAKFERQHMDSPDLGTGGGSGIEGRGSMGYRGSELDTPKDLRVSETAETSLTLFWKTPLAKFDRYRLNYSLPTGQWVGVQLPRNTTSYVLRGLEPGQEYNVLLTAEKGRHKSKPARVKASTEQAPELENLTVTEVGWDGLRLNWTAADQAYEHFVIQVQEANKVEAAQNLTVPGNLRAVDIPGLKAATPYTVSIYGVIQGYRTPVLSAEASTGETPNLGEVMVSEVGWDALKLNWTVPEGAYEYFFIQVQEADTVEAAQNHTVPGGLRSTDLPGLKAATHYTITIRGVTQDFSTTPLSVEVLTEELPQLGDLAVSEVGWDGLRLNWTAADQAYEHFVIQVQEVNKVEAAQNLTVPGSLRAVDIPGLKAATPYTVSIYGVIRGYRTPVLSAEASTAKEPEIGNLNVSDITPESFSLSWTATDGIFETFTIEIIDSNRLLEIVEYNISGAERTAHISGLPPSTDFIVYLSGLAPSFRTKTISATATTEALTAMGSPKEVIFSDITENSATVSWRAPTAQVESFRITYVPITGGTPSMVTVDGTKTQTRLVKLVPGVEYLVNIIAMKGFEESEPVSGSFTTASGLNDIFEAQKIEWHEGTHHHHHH

T3: human OX40 on cells (human, UniProt P43489 29-277)
T3 construct: also called CD134; OX40+ Cells
T3 sequence: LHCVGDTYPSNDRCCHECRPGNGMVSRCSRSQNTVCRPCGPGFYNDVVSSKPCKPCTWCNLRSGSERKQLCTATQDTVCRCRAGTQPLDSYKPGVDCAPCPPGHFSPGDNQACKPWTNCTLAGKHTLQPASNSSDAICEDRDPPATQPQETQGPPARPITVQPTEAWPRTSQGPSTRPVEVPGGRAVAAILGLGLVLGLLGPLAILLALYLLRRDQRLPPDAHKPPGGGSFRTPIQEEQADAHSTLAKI

T4: human TnC with C-terminal Avi- and His-tags (human, UniProt P24821 984-1798, biotinylated at the C-terminal Avi-tag)
T4 construct: also called huTnC; biotinylated human TnC
T4 sequence: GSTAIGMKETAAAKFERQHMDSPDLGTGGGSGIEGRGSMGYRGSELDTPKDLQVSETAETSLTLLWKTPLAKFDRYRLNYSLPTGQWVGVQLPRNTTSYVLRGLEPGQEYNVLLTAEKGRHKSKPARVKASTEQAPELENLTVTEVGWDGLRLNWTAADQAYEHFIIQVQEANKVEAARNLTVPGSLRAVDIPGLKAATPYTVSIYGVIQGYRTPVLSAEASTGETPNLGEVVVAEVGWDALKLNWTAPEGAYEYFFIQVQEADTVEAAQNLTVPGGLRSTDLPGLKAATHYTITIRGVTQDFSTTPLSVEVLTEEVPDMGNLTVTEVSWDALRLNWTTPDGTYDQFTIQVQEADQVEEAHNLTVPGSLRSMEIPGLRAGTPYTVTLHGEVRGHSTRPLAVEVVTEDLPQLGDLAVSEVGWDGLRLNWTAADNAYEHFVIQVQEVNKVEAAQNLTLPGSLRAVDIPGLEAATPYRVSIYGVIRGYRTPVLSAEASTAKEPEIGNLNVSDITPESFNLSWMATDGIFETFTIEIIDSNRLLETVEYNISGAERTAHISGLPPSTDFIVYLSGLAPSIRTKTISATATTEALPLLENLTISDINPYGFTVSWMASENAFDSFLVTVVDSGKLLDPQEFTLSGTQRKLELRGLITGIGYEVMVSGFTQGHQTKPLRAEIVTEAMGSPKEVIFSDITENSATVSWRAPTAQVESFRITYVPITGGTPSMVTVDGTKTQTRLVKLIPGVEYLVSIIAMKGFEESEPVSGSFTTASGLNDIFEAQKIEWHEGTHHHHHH


Assays:
[1] = target: T5, human OX40 Fc(kih), monomeric Fc-linked human OX40 antigen ECD (human, UniProt P0DOX5 223-449 = IgG part); assay: SPR (Biacore T200, 25 °C): bispecific held on immobilised human TnC; human OX40 Fc(kih) at 250 nM injected for 90 s as analyte 2
T5 construct: Heterodimer of one OX40 ECD (aa 29-214)-AcTEV-Fc knob-Avi chain and one Fc hole chain; Biotinylated at the Avi tag for phage selection and ELISA; also called recombinant OX40 Fc (kih) receptor; biotinylated human OX40
Method: All SPR experiments were performed on a Biacore T200 at 25° C. with HBS-EP as running buffer (0.01 M HEPES pH 7.4, 0.15 M NaCl, 3 mM EDTA, 0.005% Surfactant P20, Biacore, Freiburg/Germany).
Biotinylated human TnC was directly coupled to a flow cell of a streptavidin (SA) sensor chip. Immobilization levels up to 1000 resonance units (RU) were used.
Bulk refractive index differences were corrected for by subtracting the response obtained in a reference flow cell, where no protein was immobilized.

[2] = target: T1, mouse TnC with C-terminal Avi- and …; assay: SPR Biacore T200, biotinylated TnC on SA chip, bispecific as analyte, 1:1 fit, apparent KD (bivalent binding)
Method: (§1) The capacity of the bispecific constructs to bind human, murine and cynomolgus TnC was analysed by surface plasmon resonance (SPR). All SPR experiments were performed on a Biacore T200 at 25° C. with HBS-EP as running buffer (0.01 M HEPES pH 7.4, 0.15 M NaCl, 3 mM EDTA, 0.005% Surfactant P20, Biacore, Freiburg/Germany).
(§2) Biotinylated human, murine or cynomolgus TnC molecules were immobilised on a SA chip to reach an immobilization level of 10 resonance units (RU).
(§3) Following immobilisation, the bispecific molecules or control molecules were immediately passed over the chip surface at concentrations ranging from 0.05-50 nM, at a flow rate of 30 μL/minute for 120 seconds and a dissociation phase of 180 seconds. The surface was regenerated using 10 mM glycine pH2.1. Bulk refractive index differences were corrected for by subtracting the response obtained in a reference flow cell, where no TnC was immobilized. Affinity/Avidity was determined under these experimental conditions using the Langmuir 1:1 curve fitting. For bivalent binding the same 1:1 fitting was used leading to an apparent KD value.

[3] = target: T2, cynomolgus TnC with C-terminal Avi- and …; assay: as above
Method: as §1, §2, §3

[4] = target: T3, human OX40 on cells; assay: flow cytometry on activated human PBMC, gated on CD8+ T cells; FITC anti-human IgG secondary; MFI baseline corrected
Method: (§4) For labeling, cells were harvested, washed with pre-warmed (37° C.) DPBS and adjusted to a cell density of 1×10⁷ cells/mL in DPBS. eFluor670 cell proliferation dye (eBioscience, Cat.-No. 65-0840-85) was added to the suspension of naïve human PBMC at a final concentration of […] and a final cell density of 0.5×10⁷ cells/mL in DPBS. Cells were then incubated for 10 min at room temperature in the dark. To stop the labeling reaction, 4 mL heat inactivated FBS was added and cells were washed three times with T cell medium. A 2:1 mixture of 1×10⁵ resting eFluor670 labeled human PBMC and 0.5×10⁵ unlabeled activated human PBMC were then added to each well of round-bottomed suspension cell 96-well plates (Greiner bio-one, cellstar, Cat. No. 650185).
(§5) Cells were stained for 120 minutes at 4° C. in the dark in 50 μL/well 4° C. FACS buffer containing different amounts of the indicated antigen binding molecules. After three washes with 4° C. FACS buffer, cells were stained for 45 minutes at 4° C. in the dark in 25 μL/well 4° C. FACS buffer containing a mixture of fluorescently labeled anti-human CD4 (clone RPA-T4, mouse IgG1 k, BioLegend, Cat.-No. 300532), anti-human CD8 (clone RPa-T8, mouse IgGlk, BioLegend, Cat.-No. 3010441) and Fluorescein isothiocyanate (FITC)-conjugated AffiniPure anti-human IgG Fcγ-fragment-specific goat IgG F(ab′)₂ fragment (Jackson ImmunoResearch, Cat.-No. 109-096-098). […]

[5] = target: T3, human OX40 on cells; assay: flow cytometry on OX40+ cells (activated human PBMC)
Method: as §4
Cells were stained for 120 minutes at 4° C. in the dark in 50 μL/well 4° C. FACS buffer containing different amounts of the indicated antigen binding molecules. After three washes with 4° C. FACS buffer, cells were stained for 45 minutes at 4° C. in the dark in 25 μL/well 4° C. FACS buffer containing a mixture of fluorescently labeled anti-human CD4 (clone RPA-T4, mouse IgG1 k, BioLegend, Cat.-No. 300532), anti-human CD8 (clone RPa-T8, mouse IgGlk, BioLegend, Cat.-No. 3010441) and Fluorescein isothiocyanate (FITC)-conjugated AffiniPure anti-human IgG Fcγ-fragment-specific goat IgG F(ab′)₂ fragment (Jackson ImmunoResearch, Cat.-No. 109-096-098).
Cells were then resuspended in […] FACS-buffer containing 0.2 μg/mL DAPI (Santa Cruz Biotec, Cat. No. Sc-3598) and acquired the same day using 5-laser LSR-Fortessa (BD Bioscience with DIVA software).

[6] = target: T4, human TnC with C-terminal Avi- and …; assay: SPR Biacore T200, biotinylated TnC on SA chip, bispecific as analyte, 1:1 fit, apparent KD (bivalent binding)
Method: as §1, §2, §3

[7] = target: T3, human OX40 on cells; assay: flow cytometry on activated human PBMC, gated on CD4+ T cells; FITC anti-human IgG secondary; MFI baseline corrected
Method: as §4, §5

[8] = target: T6, human TnC on cells (human, UniProt P24821 23-2201); assay: flow cytometry on CT26huTnC cells
T6 construct: Endogenous on U87-MG cells (low or intermediate level) and stably transfected in CT26 cells (CT26huTnC, high level); also called cell surface human TnC; TnC on U87-MG cells

[9] = target: T6, human TnC on cells; assay: flow cytometry on U87-MG cells
Method: Cells were then stained for 60 to 120 minutes at 4° C. in the dark in 50 4/well 4° C.
For discrimination of live and dead cells two methods were used. […] Alternatively, cells were washed once with DPBS and were incubated for 15 minutes at dark/4° C. at a cell concentration of 1×10⁶ cell/mL in DPBS containing Zombie Aqua™ Viability Dye [1:800 dilution]. Cells were subsequently washed once with DPBS to remove excess dye before primary antigen binding molecules were added to the cells and the cells were incubated as described above.

T6 sequence (P24821 23-2201 limits assumed): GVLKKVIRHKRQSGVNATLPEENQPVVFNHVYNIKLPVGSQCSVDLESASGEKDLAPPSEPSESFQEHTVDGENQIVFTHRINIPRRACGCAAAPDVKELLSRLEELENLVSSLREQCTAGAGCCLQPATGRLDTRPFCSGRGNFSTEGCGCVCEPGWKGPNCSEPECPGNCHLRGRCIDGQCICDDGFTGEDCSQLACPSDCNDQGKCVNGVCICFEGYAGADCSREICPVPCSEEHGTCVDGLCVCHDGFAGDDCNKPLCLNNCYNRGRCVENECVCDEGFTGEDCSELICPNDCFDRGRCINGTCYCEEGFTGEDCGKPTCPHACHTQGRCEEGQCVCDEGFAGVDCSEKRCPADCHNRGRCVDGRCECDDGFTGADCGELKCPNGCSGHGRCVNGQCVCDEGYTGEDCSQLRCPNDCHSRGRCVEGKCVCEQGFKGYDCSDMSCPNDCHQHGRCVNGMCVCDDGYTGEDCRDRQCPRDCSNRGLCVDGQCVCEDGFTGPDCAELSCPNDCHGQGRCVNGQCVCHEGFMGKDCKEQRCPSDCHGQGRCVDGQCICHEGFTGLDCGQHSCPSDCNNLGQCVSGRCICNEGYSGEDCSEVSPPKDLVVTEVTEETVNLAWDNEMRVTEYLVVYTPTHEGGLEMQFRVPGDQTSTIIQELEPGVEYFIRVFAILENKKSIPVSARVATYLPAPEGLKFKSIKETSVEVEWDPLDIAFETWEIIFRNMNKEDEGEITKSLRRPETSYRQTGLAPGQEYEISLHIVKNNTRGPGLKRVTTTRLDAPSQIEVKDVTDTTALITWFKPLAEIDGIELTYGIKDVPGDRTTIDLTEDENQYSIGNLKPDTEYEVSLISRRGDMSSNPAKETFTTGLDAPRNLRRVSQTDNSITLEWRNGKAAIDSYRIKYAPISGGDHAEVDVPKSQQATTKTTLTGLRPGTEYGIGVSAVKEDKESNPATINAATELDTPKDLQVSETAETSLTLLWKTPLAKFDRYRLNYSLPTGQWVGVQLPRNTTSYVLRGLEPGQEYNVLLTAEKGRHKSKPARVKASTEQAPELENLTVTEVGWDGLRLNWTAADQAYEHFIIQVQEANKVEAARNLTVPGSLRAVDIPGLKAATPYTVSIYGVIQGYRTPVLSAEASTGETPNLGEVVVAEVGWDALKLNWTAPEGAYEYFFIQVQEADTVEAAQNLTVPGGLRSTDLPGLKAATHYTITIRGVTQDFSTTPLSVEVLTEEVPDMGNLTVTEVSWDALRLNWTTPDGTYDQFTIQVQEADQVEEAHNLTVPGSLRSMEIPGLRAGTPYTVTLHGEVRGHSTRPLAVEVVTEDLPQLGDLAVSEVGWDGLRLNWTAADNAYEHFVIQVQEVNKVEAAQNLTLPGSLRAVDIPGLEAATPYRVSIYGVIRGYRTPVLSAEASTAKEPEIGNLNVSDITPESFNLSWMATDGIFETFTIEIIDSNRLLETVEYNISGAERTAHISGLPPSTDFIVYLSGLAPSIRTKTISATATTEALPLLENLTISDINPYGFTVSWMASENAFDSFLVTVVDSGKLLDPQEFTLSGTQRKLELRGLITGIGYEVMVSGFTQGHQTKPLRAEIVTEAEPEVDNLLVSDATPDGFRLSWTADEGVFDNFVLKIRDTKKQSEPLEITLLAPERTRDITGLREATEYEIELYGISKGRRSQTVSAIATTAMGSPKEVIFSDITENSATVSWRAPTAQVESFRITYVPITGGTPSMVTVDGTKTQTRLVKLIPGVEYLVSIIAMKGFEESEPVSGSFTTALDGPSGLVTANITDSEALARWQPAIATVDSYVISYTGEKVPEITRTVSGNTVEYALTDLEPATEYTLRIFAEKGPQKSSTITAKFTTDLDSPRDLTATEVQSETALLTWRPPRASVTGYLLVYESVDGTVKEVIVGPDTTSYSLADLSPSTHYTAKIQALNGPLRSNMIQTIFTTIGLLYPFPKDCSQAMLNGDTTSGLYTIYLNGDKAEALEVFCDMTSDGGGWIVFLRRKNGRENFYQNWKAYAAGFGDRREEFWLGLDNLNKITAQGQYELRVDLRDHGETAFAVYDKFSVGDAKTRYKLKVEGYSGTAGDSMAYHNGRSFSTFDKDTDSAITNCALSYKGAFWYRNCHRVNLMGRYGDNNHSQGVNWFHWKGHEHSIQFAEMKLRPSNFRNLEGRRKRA

Row | Binder | binding result [1] | Kd [2] | Kd [3] | EC50 (read off the curve) [4] | EC50 [5] | Kd [6] | binding result [7] | EC50 [8] | EC50 [9]
1 | 49B4/TnC 18D4 P329GLALA 4 + 2 (ID8035) (bispecific antibody, human IgG1, kappa, L234A L235A, huIgG1 P329G LALA; also called 49B4/18D4 4 + 2; 4 + 2 TnC (18D4)) heavy: not shown light 1: DIQMTQSPSTLSASVGDRVTITCRASQSISSWLAWYQQKPGKAPKLLIYDASSLESGVPSRFSGSGSGTEFTLTISSLQPDDFATYYCQQYSSQPYTFGQGTKVEIKRTVAAPSVFIFPPSDRKLKSGTASVVCLLNNFYPREAKVQWKVDNALQSGNSQESVTEQDSKDSTYSLSSTLTLSKADYEKHKVYACEVTHQGLSSPVTKSFNRGEC light 2: QVQLVQSGAEVKKPGSSVKVSCKASGGTFSSYAISWVRQAPGQGLEWMGGIIPIFGTANYAQKFQGRVTITADKSTSTAYMELSSLRSEDTAVYYCAKGNFYGGLDYWGQGTTVTVSSASVAAPSVFIFPPSDEQLKSGTASVVCLLNNFYPREAKVQWKVDNALQSGNSQESVTEQDSKDSTYSLSSTLTLSKADYEKHKVYACEVTHQGLSSPVTKSFNRGEC | binds | 0.65 nM | 0.4 nM | ~0.1 nM | 0.08 nM | – | – | – | –
2 | 49B4/TnC 11C7 P329GLALA 2 + 2 (ID7215) (bispecific antibody, human IgG1, kappa, L234A L235A, huIgG1 P329G LALA; 49B4 VHCH1-Fc-(G4S)4-11C7 VHCL heavy chain, 49B4 VLCL light chain, 11C7 VLCH1 crossed light chain; also called 2 + 2 (49B4/11C7); 49B4/11C7 2 + 2) heavy: not shown light 1: DIQMTQSPSTLSASVGDRVTITCRASQSISSWLAWYQQKPGKAPKLLIYDASSLESGVPSRFSGSGSGTEFTLTISSLQPDDFATYYCQQYSSQPYTFGQGTKVEIKRTVAAPSVFIFPPSDEQLKSGTASVVCLLNNFYPREAKVQWKVDNALQSGNSQESVTEQDSKDSTYSLSSTLTLSKADYEKHKVYACEVTHQGLSSPVTKSFNRGEC light 2: SSELTQDPAVSVALGQTVRVTCQGDSLRSYYASWYQQKPGQAPVLVIYGKNNRPSGIPDRFSGSSSGNTASLTITGAQAEDEADYYCNSINSTRNEVFGGGTKLTVLSSASTKGPSVFPLAPSSKSTSGGTAALGCLVKDYFPEPVTVSWNSGALTSGVHTFPAVLQSSGLYSLSSVVTVPSSSLGTQTYICNVNHKPSNTKVDKKVEPKSCD | binds | – | – | – | 4.22 nM | 5.85 nM | – | – | –
3 | parental bivalent anti-TnC antibody clone18D4 (antibody, V domains shown, Human IgG1; also called αTnC (18D4); anti-TnC 18D4 IgG) VH: QVQLVQSGAEVKKPGSSVKVSCKASGGTFSSYAISWVRQAPGQGLEWMGGIIPIFGTANYAQKFQGRVTITADKSTSTAYMELSSLRSEDTAVYYCAKGNFYGGLDYWGQGTTVTVSS VL: DIQMTQSPSTLSASVGDRVTITCRASQSISSWLAWYQQKPGKAPKLLIYDASSLESGVPSRFSGSGSGTEFTLTISSLQPDDFATYYCQQNKKFPSGTFGQGTKVEIK | – | – | – | – | – | – | no binding (tested: 100 nM) | 2.69 nM | 8.21 nM
